Source: WO2020259667A1 (dated 2020)
One block for each binder: values may come before it.

Key:
[1] = target: T1, human OX40-His protein (Sino Biological 10481-H08H) (human, UniProt P43489 29-216); test: SPR, Biacore T200; antibody amine-coupled to a CM5 chip, human OX40-His as analyte, 1:1 Langmuir model
T1 construct: Bought protein, used as the analyte in Biacore; not shown: His tag
T1 sequence (looked up): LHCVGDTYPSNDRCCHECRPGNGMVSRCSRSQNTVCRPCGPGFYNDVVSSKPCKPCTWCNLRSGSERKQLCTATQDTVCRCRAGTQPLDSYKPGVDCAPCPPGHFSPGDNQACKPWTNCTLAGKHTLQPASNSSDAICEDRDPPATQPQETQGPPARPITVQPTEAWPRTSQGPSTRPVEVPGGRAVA

[2] = target: T2, human OX40-Fc, biotin-labelled (OX40 Leu 29-Ala 216, Accession NP_003318, fused with Fc); Acro Biosystems … (human, UniProt P43489 29-216, labelled with biotin (sites not given)); test: blocking ELISA: OX40 ligand coated on the plate, serially diluted 2G3 pre-incubated with biotinylated human OX40-Fc, SA-HRP detection; competitor OX40L
T2 construct: range 29-216; Bought from Acro Biosystems and expressed in HEK293; also called human Bio-OX40-FC; not shown: Fc tag of the bought protein
T2 sequence (looked up): T1 sequence (looked up)

[3] = target: T3, human OX40 on Jurkat-NF-Kb luc-hOX40 cells (human, UniProt P43489 29-277); test: cell-based or functional assay
T3 sequence (looked up): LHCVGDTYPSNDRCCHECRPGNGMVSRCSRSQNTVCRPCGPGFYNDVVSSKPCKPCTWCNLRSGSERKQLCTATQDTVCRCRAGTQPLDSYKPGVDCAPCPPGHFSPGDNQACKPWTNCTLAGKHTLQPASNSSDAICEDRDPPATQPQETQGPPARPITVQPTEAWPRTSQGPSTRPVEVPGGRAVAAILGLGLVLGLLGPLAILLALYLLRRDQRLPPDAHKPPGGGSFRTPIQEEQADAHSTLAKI

[4] = target: human OX40 on Jurkat-NF-Kb luc-hOX40 cells (human) (UniProt P43489); test: cell-based or functional assay

Kd [1]: 4.63 nM
koff [1]: 0.00202 s⁻¹
kon [1]: 437000 M⁻¹ s⁻¹
IC50 [2]: 1.88 nM
EC50(nM), luciferase reporter gene (RLU) in Jurkat-NF-Kb luc-hOX40 cells mixed with Raji cells on an anti-CD3 coated plate [3]: 2.29 nM
B1: 2G3 (humanized anti-OX40 antibody, hu2G3 VH1.1 + hu2G3 VL1) (antibody, human IgG1, kappa, V domains shown)
VH: QVQLQESGPGLVKPSETLSLTCTVSGYSISRYSVHWVRQPPGKGLEWIGMIWDGGNTDYNAALKSRFTISRDNAKNTLYLQMNSLRAEDTAVYYCARNPLYFSYAMDYWGQGTLVTVSS
VL: DIQMTQSPSSLSASVGDRVTITCRASQDISNYLNWYQQKPDQSPKLLIIYTSRLQSGVPSRFSGSGSGTDYTLTISSLQPEDFATYYCQQVNTFPFTFGQGTKLEIKR
notes: Format is IgG1/kappa; also called drug A; humanized 2G3 antibody

EC50(nM), luciferase reporter gene (RLU) in Jurkat-NF-Kb luc-hOX40 cells mixed with Raji cells on an anti-CD3 coated plate [4]: 0.637 nM
B2: chimeric antibody Ch2G3 (m2G3 variable regions with human IgG1 and human Kappa constant regions) (antibody, from another filing, V domains shown)
VH: QVQLKESGPGLVASSQSLSITCTVSGFSLSRYSVHWVRQPPGKGLEWLGMIWDGGNTDYNSALKSRLSISKDNSKSQVFLKMNSLQTDDTAMYYCARNPLYFSYAMDYWGQGTSVTVSS
VL: DIQMTQSTSSLSASLGDRVTISCRASQDISNYLNWYQQKPDGTVKLLIIYTSRLQSGVPSRFSGSGSGTDYSLTISNLEQEDIATYFCQQVNTFPFTFGSGTKLEIK
